± gives the standard error. This sample holds only a part of the variants without activity.
B1: glmS ribozyme (parent)
chain: AUAAAAGCGCCAGAACUACAGAAAUGUAGUUGACGAGGAGGAGGUUUAUCGAAUUUUCGGCGGAUGCCUCCAAA

Variants of: B1
Experiment: self-cleavage kobs at 10000 uM GlcN6P; higher = faster cleavage; RNA array
Settings: with glucosamine-6-phosphate
Procedure, shortened: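 Barcoded glmS ribozyme variants on sequenced MiSeq chips were transcribed in situ by E. coli RNA polymerase and tracked through a hybridised Cy3 probe at 37 °C. Glucosamine-6-phosphate (40 μM to 10 mM) in HEPES/KCl/Mg(OAc)2 buffer was flowed in, and tiles were imaged over ~14 h. Signals were normalised to baseline and to non-cleaving reference variants; per-tile medians were fit to one- or two-exponential decays to give kobs. kcat and KM came from weighted Michaelis–Menten fits across concentrations.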

Variant	self-cleavage kobs at 10000 uM GlcN6P
AUAAAAGCGCCAGACCUACAGAAAUGUAGUUGACGAGGAGGAGGUUUAUCGAAUUUUCGGCGGGUGGUUCCAAA [A15C A64G C67G C68U]	< 1e-05 s⁻¹
AUAAAAGCGCCAGCACUACAGAAAUGUAGUCGACGAGGAGAAGGUUUAUCGAAUUUUCGGCGGAUGCCUCCAAA [A14C U31C G41A]	7.28e-05 ± 1.8e-05 s⁻¹
AUAAAAGCGCCACAACUACAGAAAUGUAGUUGACGAGGAGGGGGUUUAUCGAAUUUUCGGCGGACGCCUCCAAA [G13C A42G U65C]	< 1e-05 s⁻¹
AUAAAAGCGCCACAACUACAGAAAUGUAGUUGACGAGGAGGAGGUUUAUCGAAUGUUGGGCGGAUGCCUCCAAA [G13C U55G C58G]	4.29e-05 ± 1.4e-05 s⁻¹
AUAAAAGCGCCAUAACUACAGAAAUGUAGAUGACGAGGAGGAGGUUUAUCGAAUUUUUUGCGGAUGCCUCCAAA [G13U U30A C58U G59U]	< 1e-05 s⁻¹
AUAAAAGCGCCAGCACUACAGAAAUGUAGUUGACGAGGAGGAGGUUUAUCGAAUGUUCGGCGGAUGGCUCCAAA [A14C U55G C67G]	0.000215 ± 3.8e-05 s⁻¹
AUAAAAGCGCCAGACCUACAGAAAUGUAGUUGACGAGGAGGAGAUUUAUCGAGUUUUCGGCGGAUGCCUCCAAA [A15C G44A A53G]	5.76e-05 ± 1.5e-05 s⁻¹
AUAAAAGCGCCAUAACUACAGAAAUGUAGUUGACGAGGAGGAGUGUUAUCGAAUUUUAGGCGGAUGCCUCGAAA [G13U G44U U45G C58A C71G]	< 1e-05 s⁻¹
AUAAAAGCGCCAGCACUACAGAAAUGUAGUUGACGAGGAGGAGCUUUAUCGCAUUUUCGGCGGAAGCCUCCAAA [A14C G44C A52C U65A]	< 1e-05 s⁻¹
AUAAAAGCGCCAAAACUACAGAAAUGUAGUUGACGAGGGGGAGGUUUAUCGAAUUUUCGGCGGAUGUCUCCAAA [G13A A39G C67U]	0.000112 ± 2.2e-05 s⁻¹
AUAAAAGCGCCAGUACUACAGAAAUGUAGUUGACGUGGAGGAGGUUUAUUGAAUUUUCGGCGGAUGCCUACAAA [A14U A36U C50U C70A]	7.4e-05 ± 2.1e-05 s⁻¹
AUAAAAGCGCCAGUACUACAGAAAUGUAGUUGACGAGGAGGGGGUUCAUCGAAUUUUCGGCGGAUGCCUCCAAA [A14U A42G U47C]	0.000229 ± 8.1e-05 s⁻¹
AUAAAAGCGCCAAAACUACAGAAAUGUAGUUGACGAGGAGGGGGUUUAUCGAAUUUUCGGCGGAUGCCUCCAAA [G13A A42G]	0.000882 ± 0.00023 s⁻¹
AUAAAAGCGCCAUAACUACAGAAAUGUAGUGGACGAGGAGGAGGUUUAUCGAAUUUUCGGCGGGUGCCUCCAAA [G13U U31G A64G]	0.00021 ± 5.2e-05 s⁻¹
AUAAAAGCGCCAGCACUACAGAAAUGUAGGUGGCGAAGAGGAGGUUUAUCGAAUUUUCGGCGGAUGCGUCCAAA [A14C U30G A33G G37A C68G]	< 1e-05 s⁻¹
AUAAAAGCGCCAUAACUACAGAAAUGUAGUUGACGUGGAGGAGUUUUAUCGAAUUUUCGGCGGAUGCCUCCAAA [G13U A36U G44U]	< 1e-05 s⁻¹
AUAAAAGCGCCAUAACUACAGAAAUGUAGUUGACGACGAGGACGUUUAUCGAAUUUUCGGCGGAUGCCUCCAAA [G13U G37C G43C]	< 1e-05 s⁻¹
AUAAAAGCGCCAGCACUACAGAAAUGUAGUAGACGAGGAGGAGGUUUAUCGAAUUUUCGGCGGAUGCCGCCAAA [A14C U31A U69G]	5.33e-05 ± 1.5e-05 s⁻¹
AUAAAAGCGCCAGACCUACAGAAAUGUAGUUGACGAGGAGUAGGUUUAUCGAAUUUUCGGCGGAUACCUCCAAA [A15C G41U G66A]	0.000194 ± 4.9e-05 s⁻¹

Variant	self-cleavage kobs at 10000 uM GlcN6P
AUAAAAGCGCCAUAACUACAGAAAUGUAGUUGAUGAGGAGGAGGUUUAUCGAAUUUUCGGCGUAUGCCUCCAAA [G13U C34U G63U]	< 1e-05 s⁻¹
AUAAAAGCGCCAGUACUACAGAAAUGUAGUUGACGAGGAGGAGUGGUAUCGAAUUUUCGGCGGAUGCCUCCAAA [A14U G44U U45G U46G]	4.76e-05 ± 1.9e-05 s⁻¹
AUAAAAGCGCCAGUACUACAGAAAUGUAGUUGACGAGGAGGAGGUUUCUCGAAUAUUCGGCGGAUGCCUCCAAA [A14U A48C U55A]	3.3e-05 ± 1.5e-05 s⁻¹
AUAAAAGCGCCAGUACUACAGAAAUGUAGUUGACGGGGAGGAGGUUUAUCGAAUUUUCGGCGGGUGCCUGCAAA [A14U A36G A64G C70G]	< 1e-05 s⁻¹
AUAAAAGCGCCAGUACUACAGAAAUGUAGUUGACGAGGAGGAGGUUUAUCGAUUUUUCGGCGGAUGCGUCCAAA [A14U A53U C68G]	5.14e-05 ± 1.1e-05 s⁻¹
AUAAAAGCGCCAGUACUACAGAAAUGUAGUUGACGAGGAGGUGGUUUAUCGAAUUUCCGGCGGAUGCCUCCAAA [A14U A42U U57C]	< 1e-05 s⁻¹
AUAAAAGCGCCACAACUACAGAAAUGUAGUUGACGAGGAGGAGGUUUAUCGAAUUUUCGGCGGAUGCCUCAAAA [G13C C71A]	4.74e-05 ± 1.4e-05 s⁻¹
AUAAAAGCGCCAGUACUACAGAAAUGUAGUUGACGAGGAAGAGGUUUAUCGAAAUUUCGGCGGAUGCCUCCAAA [A14U G40A U54A]	0.000245 ± 8.4e-05 s⁻¹
AUAAAAGCGCCAGUACUACAGAAAUGUAGGCGACGAGGAGGAGGUUUAUCGAAUUUUCGGCGGAUGCCUCCAAA [A14U U30G U31C]	0.000695 ± 0.00016 s⁻¹
AUAAAAGCGCCAGCACUACAGAAAUGUAGUUGACGAGGUGGAGGUUCAUCGAAUUUUCGGCGGAUGCCUUCAAA [A14C A39U U47C C70U]	0.00047 ± 6.5e-05 s⁻¹
AUAAAAGCGCCAGGACUACAGAAAUGUAGUUGACGAGGAGGAGGUUUAGCGAAUCUUCGGCGGAUGCCUCCAAA [A14G U49G U55C]	0.00199 ± 0.00057 s⁻¹
AUAAAAGCGCCACAACUACAGAAAUGUAGUUGACGAGGAGGAGGUUUAUCGAAUUUUCGGCGGAUGUGUCCAAA [G13C C67U C68G]	< 1e-05 s⁻¹
AUAAAAGCGCCAUAAUUACAGAAAUGUAGUUGACGAGGAGGAGGUUUAUCGAUUUUUCGGCUGAUGCCUCCAAA [G13U C16U A53U G62U]	< 1e-05 s⁻¹
AUAAAAGCGCCAGCACUACAGAAAUGUAGUUGACGAGGAGGAGGUUUAUCGAAGUUUCGGCGGAUGCCUACAAA [A14C U54G C70A]	7.96e-05 ± 1.8e-05 s⁻¹
AUAAAAGCGCCAGACGUACAGAAAUGUAGUAGACGAGGAGGAGGUUUAUCGAAUUUUCGGCGGAUGCCUCCAAA [A15C C16G U31A]	0.000253 ± 7.3e-05 s⁻¹
AUAAAAGCGCCAGUACUACAGAAAUGUAGUUGACGAGGAGGAGGUUUAUCGCAUUUACGGCGGAUGCCUCUAAA [A14U A52C U57A C71U]	< 1e-05 s⁻¹
AUAAAAGCGCCAUAACUACAGAAAUGUAGUUGACGAGGAGGAGGUCUAUCGAAUUUUCGGCGGAUGCCUCCAAA [G13U U46C]	3.18e-05 ± 1.1e-05 s⁻¹
AUAAAAGCGCCAGAGCUACAGAAAUGUAGUUGACGAGGAGGAGGUUUAUCGGAUUUUCGGCGGAUGCCUCUAAA [A15G A52G C71U]	0.00137 ± 0.00021 s⁻¹

Source: the supplement of paper PMC7125110
